Data reported in patent US20130343989A1 (SANFORD BURNHAM MEDICAL RESEARCH INSTITUTE, published 2013).
Ends that are not written are not given here.

Tests used:
[1] = biological target: T1, neuropilin-1 by forced expression in M21 cells (transfected neuropilin-1 cDNA) (UniProt O14786 22-923, limits assumed); test: phage binding to M21 cells transfected with neuropilin-1 cDNA against vector alone or untransfected cells, phage titration
T1 construct: whole, on cells; also called NRP-1
Description: Suspended cells (10⁶ cells in DMEM containing 1% BSA) were incubated with 10⁸ pfu/ml of T7 phage for 1 hr at 4° C. The cells were washed 4 times with the binding buffer, lysed with lysogeny broth containing 1% NP-40, and titrated. Phage internalization assays used the same procedure, except that the cells were incubated with phage at 37° C., and that an acidic buffer (500 mM sodium chloride, 0.1 M glycine, 1% BSA, pH 2.5) was substituted for the binding buffer in the second wash. Inhibitors of binding and internalization were added 20 min prior to incubation with phage. […] Free synthetic peptides, mouse antibodies against human α1, α2, αvβ3, αvβ5, α5β1, α4, or αv integrins and integrin subunits (Chemicon), goat anti-rat neuropilin-1 (R&D Systems, Minneapolis, Minn.), with mouse and a goat IgG isotype controls (Abcam) were also tested.

[2] = biological target: T1, neuropilin-1 by forced expression in …; test: cell-based or functional assay

T1 sequence (O14786 22-923 limits assumed): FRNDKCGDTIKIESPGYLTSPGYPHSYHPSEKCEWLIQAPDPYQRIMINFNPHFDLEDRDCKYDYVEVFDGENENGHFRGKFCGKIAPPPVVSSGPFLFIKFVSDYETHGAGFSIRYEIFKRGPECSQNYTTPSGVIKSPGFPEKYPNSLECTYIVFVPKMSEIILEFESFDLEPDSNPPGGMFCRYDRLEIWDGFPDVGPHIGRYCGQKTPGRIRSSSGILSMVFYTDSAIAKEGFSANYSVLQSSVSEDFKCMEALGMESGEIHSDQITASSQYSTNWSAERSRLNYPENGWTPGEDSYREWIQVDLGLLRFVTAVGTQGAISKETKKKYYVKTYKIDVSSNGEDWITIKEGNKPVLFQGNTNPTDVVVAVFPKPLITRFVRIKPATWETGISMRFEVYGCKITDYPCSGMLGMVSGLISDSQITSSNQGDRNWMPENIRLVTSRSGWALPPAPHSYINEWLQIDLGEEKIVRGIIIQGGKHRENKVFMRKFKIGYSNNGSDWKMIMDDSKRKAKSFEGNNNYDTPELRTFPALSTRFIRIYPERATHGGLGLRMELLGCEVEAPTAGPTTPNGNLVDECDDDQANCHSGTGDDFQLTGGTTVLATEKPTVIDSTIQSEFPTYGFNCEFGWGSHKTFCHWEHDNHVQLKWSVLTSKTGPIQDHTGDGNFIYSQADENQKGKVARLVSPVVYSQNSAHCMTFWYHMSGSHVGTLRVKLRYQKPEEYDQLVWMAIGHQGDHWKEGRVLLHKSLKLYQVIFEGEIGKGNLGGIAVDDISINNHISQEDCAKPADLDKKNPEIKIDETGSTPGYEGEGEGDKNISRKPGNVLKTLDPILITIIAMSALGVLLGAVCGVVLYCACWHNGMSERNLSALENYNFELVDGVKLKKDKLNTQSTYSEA

B1: CRGDK phage (T7 phage displaying CRGDK) (peptide)
peptide: CRGDK
modifications: also: displayed on T7 phage
notes: CRGDK is the N-terminal proteolytic fragment of iRGD; also called CRGDK fragment; FAM-CRGDK
[1]
  fold increase of binding on forced expression of neuropilin-1 in M21 cells: 3.5 fold
[2]
  internalization of CRGDK phage into M21 cells: 3.5 fold
